{"source": "the DeepSol protein solubility set", "data": [{"assay": "soluble on expression in E. coli; label from the status in PepcDB or PDB records", "values": [{"sequence": "GPGSMSGGSTALKLQRLLEAEGAVIHSALQVRALPSMGGGMGVVLTERLAAGAVLARFPFRSMITARKARFNLAMAEVALELLEGHVATASTNNGSEGDNGSAGPCAATDVLHVIPFASRVWSEYEFETRVRSRRLRQLIDAKVEELAGALDSTETIVCYVLLMAALYGRLSKHARLRRSGADDGAADEEASVSGTEACACGDEAGPAPTLHYTHENAWMRTWIHALPAQYDNLLELVPVPEDSPPCLAQHGTEPECAARAPSVLSGNATTASPPPPLLARVSAYTKSSGWLRSYISLCRFQASVAREQQAIQRRHAKCCAALRCLQRLPRGVEVTEELADAGHGAAAPQNRVFASCGSSPSSSQQDCGRHDHGAACTLGQFLWAFNTLMSRGFYFPEATWALMPFVDYFNYALESNGTMYPQEDDPEDPGCFTNLLLAKTSRNGIGSVAPLMAAAAPRKQQWRTALRTARVGKAAVPLANYQTYEFQLVRPTCPPSEQVMLHYGAYSDVELLMWYGFTLRPSLLPAPQLAAAPEGRKKGTIPVLPPCLSDADGSLLHAAHGLRLALSQLASATTRVAYYRRWVAPLHRCDGAAASDADAAAACKTWLAALHCAYRLPLSPIANAEGKYPEATPGATWLDELLSAFAQTPAVAAPCTDAASEDEAAYRIDAWMRRWGSERWPGFAASAFPNITKGCAFGVLGLSPVLRAAVHSSFWTPTPERSSLSAGERLLVVRGLAWAELYVNMTAAAHADGWTTSSVPASAAAAECARTMSVDQWTLLRFLALESTDAALEEYVEYVSESEG", "soluble on expression in E. coli": "not soluble"}, {"sequence": "MSLTPSIISIQSQVVHGHVGNSAAVLPMQGHGVTVAAVPTTLLSNHPGFETVRGRVLESELVGDLLRGVEERGLIETSGYIVSGYLGSRANGEVVASFVKRARRLNPDITYICDPVMGDAALGVFVADQVVSCLCDDLIPLADLLTPNQFEVGLIAGRPLSTWRELEAAVLKIRAPRGARLVVTGCALSDTPDGALENIVFDDKTHTRLTSPRLPLAPAGTGDLYTGLLTAKLARGHTLVEAACHAATSVLDVLQQTMAAGEHEMQLARAITTLGPACKETSEGHHHHHH", "soluble on expression in E. coli": "soluble"}, {"sequence": "MRAPEESLREVLARFPQVQAAFLFGSRAEGRARADSDWDLALLLSPEEPDPTLEVLGALVEAGLERVDLVLLHRAPPLLAFLAVKGKPVFLREGFDLGSYVSRVAREWWDTEPLLRVQREALTLKRRWLDPS", "soluble on expression in E. coli": "soluble"}, {"sequence": "MSVARHTQILPSVLDRLLDDEPDQSHIESISLFELPQFKRALARDLEALLNTRLMPLDELMESFPQARDSLLTFGIPDLSGISLLNPDDRELLREQLRRSIELHEPRLSRVRVNLDAPREMERHLRFRVDAVLKVHPHRPPVTFDATLQLSSNVYKVQG", "soluble on expression in E. coli": "not soluble"}, {"sequence": "MINSVITQMAEELRKASKVALFSHVSPDGDCIGSMLGIGLALEALGKEVAMFNPDPIPRNLSFLPGVDKITQSMPDPLPETLLFVDCADLQRVQLQREDLPADAVILNLDHHISNQNFGRINWVDSQAAASGELAYALVRRLNVELTQEIAANFYTALLTDTGSFKYANTTAKTHQIAGELMETGISLGDIHHFVFDQTPMVKLELLRRGLNQLQFFAEGQLGMMTLRKQDFEESGAEESLSEGLIDHARTVEGVEVAVLLKEVKPDVVRVSLRSNRWFDVNRIADGFGGGGHQRAAGCTLHLSLEEAKQKVRQIIEEELKLGRSHLEHHHHHH", "soluble on expression in E. coli": "soluble"}, {"sequence": "MAKKTSSKGKLPPGPLPLPGLGNLLHVDFQNTPYCFDQLRRRFGDVFSLQLAWTPVVVLNGLAAVREALVTHGEDTADRPPVPITQILGFGPRSQGVFLARYGPAWREQRRFSVSTLRNLGLGKKSLEQWVTEEAACLCAAFANHSGRPFRPNGLLDKAVSNVIASLTCGRRFEYDDPRFLRLLDLAQEGLKEESGFLREVLNAVPVDRHIPALAGKVLRFQKAFLTQLDELLTEHRMTWDPAQPPRDLTEAFLAEMEKAKGNPESSFNDENLRIVVADLFSAGMVTTSTTLAWGLLLMILHPDVQRRVQQEIDDVIGQVRRPEMGDQAHMPYTTAVIHEVQRFGDIVPLGMTHMTSRDIEVQGFRIPKGTTLITNLSSVLKDEAVWEKPFRFHPEHFLDAQGHFVKPEAFLPFSAGRRACLGEPLARMELFLFFTSLLQHFSFSVPTGQPRPSHHGVFAFLVSPSPYELCAVPRHHHH", "soluble on expression in E. coli": "soluble"}, {"sequence": "MDRIVEIEKYSFDETYETSLRPSNFDGYIGQESIKKNLNVFIAAAKKRNECLDHILFSGPAGLGKTTLANIISYEMSANIKTTAAPMIEKSGDLAAILTNLSEGDILFIDEIHRLSPAIEEVLYPAMEDYRLDIIIGSGPAAQTIKIDLPKFTLIGATTRAGMLSNPLRDRFGMQFRLEFYKDSELALILQKAALKLNKTCEEKAALEIAKRSRSTPRIALRLLKRVRDFADVNDEEIITEKRANEALNSLGVNELGFDAMDLRYLELLTAAKQKPIGLASIAAALSEDENTIEDVIEPYLLANGYIERTAKGRIASAKSYSALKLNYEKTLFEE", "soluble on expression in E. coli": "not soluble"}, {"sequence": "MSGIITILGLGAGELDQLTMGVYRKIKEADHLFVRTKEHPVIEELEKEGVQYTSFDAVYEAHDTFEIVYETIANKLLEQAEGTEIIYAVPGHPLVAERTVQLLLEKGEVSNVEVRIEGGQSFLDPMFASLKIDPIEGFQLLDATSFERGQLELRQHLIFCQVYDAFVASDVKLTLMEMLPDDYEVYIVTAAGTSFEQVKKVPLYMLDHETELNNLTSVYMPPVQERASLYQQFDVLREIIAELRGPNGCPWDKKQTHQSLKKYLIEEAYEVLEAIDEEDDDHLVEELGDILLQVMLHAQIGEDEGWFSIDDIIRTLSEKMVRRHPHVFGNTDVNSADEVIANWEEIKKQEKGFVKESVLNGVPKSLPQLLRAYEIQKKAGKVGFDWVDVQPMIEKALEEWQEFQQEVTNMDEEKMLGEFGDLLFAFVNIARHYKIDPEEALRSTNEKFTGRFLYMEAKVAEMNKEMKDLSLEQLDVLWEEAKQTER", "soluble on expression in E. coli": "not soluble"}, {"sequence": "MGSDKIHHHHHHMFVNRKEELEFLERKWREEGAQLIIIYGRRRIGKTMLLKEFLKGKRGIYFLATADSMAENIRGLAEKFTKLTRREYFMEVRDFRRLFRYLAEEMGKERVAVVLDEFQYLISLDPGILSVLQKIWDEYLKDTGIFLILCGSSIGMMERTLEYKSPLYGRRTGAWKVKPFDIRGIAEMFPERSMEELVKIYAVFGGVPFYLDLIRNLSVENAIKERILKKGEILYEEPEFLLREELREPRVYKLILKGLALGYESLGELINFTGLDRGNLSKYLDTLERLELVGYELPYGKRKRGQYYIRDNFFNFWFRFVYPNLADLELGLVNEVWERISGEINAYYGKMFERLVREMLRLRILDFGQKGVSRWWHRGEEIDAIAELKDKLLFVEVKWKDLNRREARKILKDLKRKSERFEGEKEFLLIAKRIEDKEEGMLDLEDLEKVIRNL", "soluble on expression in E. coli": "not soluble"}, {"sequence": "MKTTLFYIMFAYALSTAFPSMMLAQASSIAEVNQGQASKMVIDSSARVLSTLEQQRAQFRQDPKALRQFMETEFTTIFDRDYAARLVLGKYARNASDTDVKLFADAITENLMQRYGNALLTFEGKPNFRAKSESRLPGNRNVRVSTELIRSGADPVAVDYLLRNVNGQWKIFDVMIEGISYVQTFRNQFDAPLRQKGIAQVAAELRSGNLQVGKSNGKAAALEHHHHHH", "soluble on expression in E. coli": "soluble"}, {"sequence": "MGSDKIHHHHHHMIKNNRVYGIIGVGAYMANFNADLSGYPKTTTNNDIFGSDKALKYPMKRMWLIEGDKVFYIKSMTIAKSKKDKEMEILQPKDLIERYEDLFGKEWDANLTVKDVAKDLFSTVDIMNFGATFTGSESESKTAKKKIGHNISITGAVQINQGFNLYEKTNVLVQDILSPFRNPNDKSEDKTATSIGTKIVTDEAHYVYSFSVNPANYADYLGLIDGFEGYTTEAYEKFKRAARVATTAFNTNSKSGCENELALFIELKEDSKLFLANLDRYVEVRKKEKQTLYDLSKLAEIIAPQQEEIQSIELFHNPISVEVNYGSLPCTVNSIF", "soluble on expression in E. coli": "not soluble"}, {"sequence": "MSLGLTTKPLSLKVNAALFDVDGTIIISQPAIAAFWRDFGKDKPYFDAEHVIQVSHGWRTFDAIAKFAPDFANEEYVNKLEAEIPVKYGEKSIEVPGAVKLCNALNALPKEKWAVATSGTRDMAQKWFEHLGIRRPKYFITANDVKQGKPHPEPYLKGRNGLGYPINEQDPSKSKVVVFEDAPAGIAAGKAAGCKIIGIATTFDLDFLKEKGCDIIVKNHESIRVGGYNAETDEVEFIFDDYLYAKDDLLKWEGHHHHHH", "soluble on expression in E. coli": "soluble"}]}]}
